Data: patent US20220296726A1 (Bicycle, published 2022)
*1 amine or outer side, *2 acyl side, *3 side chain or, on linkers, in order; H or OH if unused. Bridges are numbered along the chain shown (N, C = ends). Where no end group is shown, it is not given here. [ ]: non-standard residue; d: D form. The star is where a group is joined. TATA = O=C(CC[*:1])N1CN(C(=O)CC[*:2])CN(C(=O)CC[*:3])C1; Phe(4-CF3) = N[C@@H](Cc1ccc(C(F)(F)F)cc1)C(=O)O; Phe(3-Me) = Cc1cccc(C[C@H](N)C(=O)O)c1; 2Nal = N[C@@H](Cc1ccc2ccccc2c1)C(=O)O; Pent4ynoyl = C#CCCC(=O)*; Aib = CC(C)(N)C(=O)O

B1: BCY18220 (peptide)
peptide: ACAEYCFWPFYHCA-NH2
modifications: linker 2-6-13 via TATA; N-terminus assumed
SMILES: C[C@H](N)C(=O)N[C@H]1CSCCC(=O)N2CN3CN(C2)C(=O)CCSC[C@H](NC(=O)[C@H](Cc2ccc(O)cc2)NC(=O)[C@H](CCC(=O)O)NC(=O)[C@H](C)NC1=O)C(=O)N[C@@H](Cc1ccccc1)C(=O)N[C@@H](Cc1c[nH]c2ccccc12)C(=O)N1CCC[C@H]1C(=O)N[C@@H](Cc1ccccc1)C(=O)N[C@@H](Cc1ccc(O)cc1)C(=O)N[C@@H](Cc1c[nH]cn1)C(=O)N[C@H](C(=O)N[C@@H](C)C(N)=O)CSCCC3=O
B2: BCY20058 (peptide)
peptide: CSEYCFXPFYHC
modifications: N-terminal acetyl (Ac); CiSEYCiiF[5FTrp]PFYHCiii; Ci, Cii, Ciii on TATA scaffold
B3: BCY20057 (peptide)
peptide: CSEYCFXPFYHC
modifications: N-terminal acetyl (Ac); CiSEYCiiF[6FTrp]PFYHCiii; Ci, Cii, Ciii on TATA scaffold
B4: BCY20096 (peptide)
peptide: CSXYCFWPFYHC
modifications: N-terminal acetyl (Ac); CiS[K(PYA)]YCiiFWPFYHCiii; Ci, Cii, Ciii on TATA scaffold
B5: BCY20062 (peptide)
peptide: CSEYCFXPFYHC
modifications: not fully specified; N-terminal acetyl (Ac); CiSEYCiiF[AzaTrp]PFYHCiii; Ci, Cii, Ciii on TATA scaffold
B6: BCY20080 (peptide)
peptide: CSEYCFWPFXHC
modifications: N-terminal acetyl (Ac); CiSEYCiiFWPF[3tBuTyr]HCiii; Ci, Cii, Ciii on TATA scaffold
B7: BCY20067 (peptide)
peptide: CSEYCFWXFYHC
modifications: N-terminal acetyl (Ac); CiSEYCiiFW[Cis-HyP]FYHCiii; Ci, Cii, Ciii on TATA scaffold
B8: BCY20051 (peptide)
peptide: CSEYCXWPFYHC
modifications: N-terminal acetyl (Ac); CiSEYCii[2FPhe]WPFYHCiii; Ci, Cii, Ciii on TATA scaffold
B9: BCY20072 (peptide)
peptide: CSEYCFWPXYHC
modifications: N-terminal acetyl (Ac); CiSEYCiiFWP[3MePhe]YHCiii; Ci, Cii, Ciii on TATA scaffold
B10: BCY20083 (peptide)
peptide: Ac-CSEYCFWPFYNC-NH2
modifications: linker 1-5-12 via TATA
SMILES: CC(=O)N[C@H]1CSCCC(=O)N2CN3CN(C2)C(=O)CCSC[C@H](NC(=O)[C@H](Cc2ccc(O)cc2)NC(=O)[C@H](CCC(=O)O)NC(=O)[C@H](CO)NC1=O)C(=O)N[C@@H](Cc1ccccc1)C(=O)N[C@@H](Cc1c[nH]c2ccccc12)C(=O)N1CCC[C@H]1C(=O)N[C@@H](Cc1ccccc1)C(=O)N[C@@H](Cc1ccc(O)cc1)C(=O)N[C@@H](CC(N)=O)C(=O)N[C@H](C(N)=O)CSCCC3=O
B11: BCY20102 (peptide)
peptide: CSEYCFWPFXHC
modifications: N-terminal acetyl (Ac); CiSEYCiiFWPF[K(PYA)]HCiii; Ci, Cii, Ciii on TATA scaffold

Target: T1, Human TREM2 extracellular domain (ECD), residues 19-131, C-terminally biotinylated, deglycosylated (human, UniProt Q9NZC2 19-131, C-terminally biotinylated; deglycosylated)
T1 construct: range 19-131; loaded on Superstreptavidin biosensors; also called triggering receptor expressed on myeloid cells 2; Human BLI (deglycosylated)
T1 sequence (looked up): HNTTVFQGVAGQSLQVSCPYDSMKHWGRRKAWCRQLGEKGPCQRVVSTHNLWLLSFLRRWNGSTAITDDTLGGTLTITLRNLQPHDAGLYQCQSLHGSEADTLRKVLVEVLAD
Assay: BLI steady state, deglycosylated human TREM2 ECD on sensor
Protocol: Bio-layer interferometry was performed on an Octet RED384® system (Sartorius) at 25° C. in a buffer containing 50 mM HEPES (pH 7.5), 150 mM NaCl and 0.1% Tween. […] Reference wells containing no bicycle peptides and reference sensors loaded with an unrelated protein (His-tagged MLLT3a) were subjected to the same assay protocol and double reference subtraction was used for processing to account for non-specific binding. Traces were analysed using Octet Software (Version 11.0). Association and dissociation curves were globally fit and the response at equilibrium (Req) plotted against concentration to obtain steady-state KD values.

Question: Which Kd does the source give for ACSEYCFWPFYSCA (linker 2-6-13 via TATA) [BCY17669] here?
Answer: 1200 nM

Question: Which Kd does the source give for ACSEYCFWPFAHCA (linker 2-6-13 via TATA) [BCY18227] here?
Answer: 3100 nM

Question: With ACSAYCFWPFYHCA (linker 2-6-13 via TATA) [BCY18221] as the binder, how does the Kd read?
Answer: 1800 nM

Question: ACSEYCFWPFYLCA (linker 2-6-13 via TATA) [BCY19777] was tested. Which Kd did it give?
Answer: ~1200 nM

Question: Which Kd does the source give for ACSEYCFWPFWNCA (Ci, Cii, Ciii on TATA scaffold) [BCY17671] here?
Answer: 900 nM

Question: For ACSEYCFWPFYACA (linker 2-6-13 via TATA) [BCY18228], which Kd is on record?
Answer: 2600 nM

Question: With ACSEYCFWPFFNCA (Ci, Cii, Ciii on TATA scaffold) [BCY17672] as the binder, how does the Kd read?
Answer: 2000 nM

Question: How did the Kd turn out when B1 was run?
Answer: 2000 nM

Question: How did the Kd turn out when ACSEYCFWPFYPCA (linker 2-6-13 via TATA) [BCY17670] was run?
Answer: 1700 nM

Question: Which Kd does the source give for ACSEYCFWAFYHCA (linker 2-6-13 via TATA) [BCY18225] here?
Answer: 14000 nM

Question: How did the Kd turn out when Ac-CSEYCFWPK(Pent4ynoyl)YHC (linker 1-5-12 via TATA) [BCY20101] was run?
Answer: 18600 nM

Question: With B2 as the binder, how does the Kd read?
Answer: 1430 nM

Question: Ac-ACSEYCFWPFYHCA-NH2 (linker 2-6-13 via TATA) [BCY18218] was tested. Which Kd did it give?
Answer: 2000 nM

Question: Which Kd does the source give for Ac-CSEYCFWPFFLC (linker 1-5-12 via TATA) [BCY20222] here?
Answer: 1570 nM

Question: CSEYCXWPFYHC (N-terminal acetyl (Ac); CiSEYCii[4Pal]WPFYHCiii; Ci, Cii, Ciii on TATA scaffold) [BCY20567] was tested. Which Kd did it give?
Answer: 1020 nM

Question: Which Kd does the source give for Ac-CSEYCF[Phe(4-CF3)]PFYHC (linker 1-5-12 via TATA) [BCY20065] here?
Answer: 7280 nM

Question: Ac-CSEYCFW[Aib]FYHC (linker 1-5-12 via TATA) [BCY19670] was tested. Which Kd did it give?
Answer: 30000 nM

Question: CSEYCFWPFYHC-NH2 (linker 1-5-12 via TATA) [BCY18219] was tested. Which Kd did it give?
Answer: 700 nM

Question: How did the Kd turn out when B3 was run?
Answer: 2560 nM

Question: How did the Kd turn out when CSEYCFWPFYXC (N-terminal acetyl (Ac); CiSEYCiiFWPFY[HArg]Ciii; Ci, Cii, Ciii on TATA scaffold) [BCY20575] was run?
Answer: 375 nM

Question: For B4, which Kd is on record?
Answer: 2500 nM

Question: Which Kd does the source give for CSEYCFWXFYHC (N-terminal acetyl (Ac); CiSEYCiiFW[Pip]FYHCiii; Ci, Cii, Ciii on TATA scaffold) [BCY20069] here?
Answer: 1460 nM

Question: With CSEYCFWXFYHC (N-terminal acetyl (Ac); CiSEYCiiFW[Aze]FYHCiii; Ci, Cii, Ciii on TATA scaffold) [BCY20068] as the binder, how does the Kd read?
Answer: 2540 nM

Question: Which Kd does the source give for Ac-CSEYCFWPFQYC (linker 1-5-12 via TATA) [BCY20220] here?
Answer: 1300 nM

Question: Which Kd does the source give for Ac-CSYYCFWPFQYC (linker 1-5-12 via TATA) [BCY20221] here?
Answer: 690 nM

Question: With B5 as the binder, how does the Kd read?
Answer: 3440 nM

Question: Which Kd does the source give for B6 here?
Answer: 375 nM

Question: B7 was tested. Which Kd did it give?
Answer: 23600 nM

Question: For Ac-CSEYCFWPFYHCK(Pent4ynoyl) (linker 1-5-12 via TATA) [BCY20085], which Kd is on record?
Answer: 1620 nM

Question: For B8, which Kd is on record?
Answer: 2040 nM

Question: With Ac-CSEYCF[Phe(3-Me)]PFYHC (linker 1-5-12 via TATA) [BCY20064] as the binder, how does the Kd read?
Answer: 5240 nM

Question: Which Kd does the source give for CSEYCFWPXYHC (N-terminal acetyl (Ac); CiSEYCiiFWP[4Pal]YHCiii; Ci, Cii, Ciii on TATA scaffold) [BCY20569] here?
Answer: 3800 nM

Question: B9 was tested. Which Kd did it give?
Answer: 1670 nM

Question: With Ac-CSEYCFWPFYHC-NH2 (linker 1-5-12 via TATA) [BCY18217] as the binder, how does the Kd read?
Answer: 900 nM

Question: For Ac-CSEYCFWPFYQC (linker 1-5-12 via TATA) [BCY20572], which Kd is on record?
Answer: 1060 nM

Question: Ac-CSEYCFWPFDHC (linker 1-5-12 via TATA) [BCY20570] was tested. Which Kd did it give?
Answer: 1870 nM

Question: Which Kd does the source give for Ac-CSEYCFWPLYHC (linker 1-5-12 via TATA) [BCY20070] here?
Answer: 1660 nM

Question: For Ac-CSEYCFWPF[dA]HC (linker 1-5-12 via TATA) [BCY20093], which Kd is on record?
Answer: 4680 nM

Question: How did the Kd turn out when Ac-CSEYCFWPFYSC (linker 1-5-12 via TATA) [BCY20084] was run?
Answer: 1650 nM

Question: How did the Kd turn out when B10 was run?
Answer: 1840 nM

Question: Ac-CSEYCFWPFYDC (linker 1-5-12 via TATA) [BCY20573] was tested. Which Kd did it give?
Answer: 1960 nM

Question: How did the Kd turn out when Ac-CSEYCFWPFYFC (linker 1-5-12 via TATA) [BCY20576] was run?
Answer: 1350 nM

Question: Which Kd does the source give for Ac-CSEYCFWPFYEC (linker 1-5-12 via TATA) [BCY20574] here?
Answer: 1740 nM

Question: With Ac-CSEYCFWPFEHC (linker 1-5-12 via TATA) [BCY20571] as the binder, how does the Kd read?
Answer: 2210 nM

Question: Ac-CSEYCYWPFYHC (linker 1-5-12 via TATA) [BCY20566] was tested. Which Kd did it give?
Answer: 2140 nM

Question: For Ac-CSEYCFWPFYPC (linker 1-5-12 via TATA) [BCY20082], which Kd is on record?
Answer: 1930 nM

Question: For Ac-CS[dA]YCFWPFYHC (linker 1-5-12 via TATA) [BCY20087], which Kd is on record?
Answer: 18000 nM

Question: Ac-CSEYCFWPYYHC (linker 1-5-12 via TATA) [BCY20568] was tested. Which Kd did it give?
Answer: 2280 nM

Question: How did the Kd turn out when Ac-C[dA]EYCFWPFYHC (linker 1-5-12 via TATA) [BCY20086] was run?
Answer: 18000 nM

Question: For Ac-CSEYCFWPFY[dA]C (linker 1-5-12 via TATA) [BCY20094], which Kd is on record?
Answer: 2530 nM

Question: With Ac-CDEYCFWPFYHC (linker 1-5-12 via TATA) [BCY20563] as the binder, how does the Kd read?
Answer: 3170 nM

Question: B11 was tested. Which Kd did it give?
Answer: 1460 nM

Question: Ac-CSEYCF[2Nal]PFYHC (linker 1-5-12 via TATA) [BCY20056] was tested. Which Kd did it give?
Answer: 4690 nM
